# Source: paper PMC5342195, “Structure-based mutational analysis of ICAT residues mediating negative regulation of β-catenin co-transcriptional activity” (PLoS ONE, 2017)
# T1: ICAT D66G + F71A + E75V (GAV), Flag-tagged (human, UniProt Q9NSA3 1-81, D66G | F71A | E75V)
# T1 construct: ICAT, human cDNA of 243 bp in pFLAG-CMV2, triple mutant of the C-terminal domain; also called ICAT-GAV; source: Mel501 cells, transiently transfected, in total cell lysate
# T1 sequence (looked up): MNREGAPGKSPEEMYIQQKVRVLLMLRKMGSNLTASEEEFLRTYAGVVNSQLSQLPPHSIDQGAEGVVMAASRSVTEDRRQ
# What was measured:
# [1] = target: T2, WT ICAT-GST recombinant protein (human, UniProt Q9NSA3 1-81); assay: pull-down; WT ICAT-GST on glutathione-Sepharose 4B beads incubated 3 h at 4°C with total cell lysate in RIPA (500 μg of total proteins) of Lu1205 cells transfected with HA-tagged β-catenin-NLS WT or mutants; washed five times; anti-HA blot; densitometry with ImageJ; conditions: one partner purified
# T2 construct: ICAT, WT human cDNA cloned in the bacterial expression vector pGEX-4T3; also called recombinant WT ICAT-GST protein
# [2] = target: T1, ICAT D66G + F71A + E75V (GAV), …; assay: co-IP; total cell lysates of Mel501 cells transfected with ICAT-Flag WT or mutants, anti-Flag monoclonal antibody 2 h at 4°C, Protein G agarose, washed with RIPA; blot for endogenous β-catenin; densitometry with ImageJ, control fixed to 1.0; conditions: partners not purified
# [3] = target: T3, ICAT D66G + F71A (GA), Flag-tagged (human, UniProt Q9NSA3 1-81, D66G | F71A); assay: as above; conditions: partners not purified
# T3 construct: ICAT, human cDNA of 243 bp in pFLAG-CMV2, double mutant of the C-terminal domain; also called ICAT-GA; source: Mel501 cells, transiently transfected, in total cell lysate
# [4] = target: T4, ICAT F71A + E75V (AV), Flag-tagged (human, UniProt Q9NSA3 1-81, F71A | E75V); assay: as above; conditions: partners not purified
# T4 construct: ICAT, human cDNA of 243 bp in pFLAG-CMV2, double mutant of the C-terminal domain; also called ICAT-AV; source: Mel501 cells, transiently transfected, in total cell lysate
Binder,fold of pulled-down protein against full-length WT β-catenin [1],reduction of co-precipitated β-catenin against ICAT WT [2],reduction of co-precipitated β-catenin against ICAT WT [3],reduction of co-precipitated β-catenin against ICAT WT [4]
"HA-tagged β-catenin-NLS Δ665 (D665X) (domain or fragment, UniProt P35222 1-664, looked up, β-catenin of the HA-tagged CMV::β-catenin-NLS expression vector, truncated by a premature stop codon at residue 665 (D665X); lacks helix C (residues 667-683) and the C-terminal domain; If the NLS stood at the C-terminus of the parent construct, the stop codon would remove it; also called β-catenin Δ665; source: Lu1205 cells, transfected, in total cell lysate) MATQADLMELDMAMEPDRKAAVSHWQQQSYLDSGIHSGATTTAPSLSGKGNPEEEDVDTSQVLYEWEQGFSQSFTQEQVADIDGQYAMTRAQRVRAAMFPETLDEGMQIPSTQFDAAHPTNVQRLAEPSQMLKHAVVNLINYQDDAELATRAIPELTKLLNDEDQVVVNKAAVMVHQLSKKEASRHAIMRSPQMVSAIVRTMQNTNDVETARCTAGTLHNLSHHREGLLAIFKSGGIPALVKMLGSPVDSVLFYAITTLHNLLLHQEGAKMAVRLAGGLQKMVALLNKTNVKFLAITTDCLQILAYGNQESKLIILASGGPQALVNIMRTYTYEKLLWTTSRVLKVLSVCSSNKPAIVEAGGMQALGLHLTDPSQRLVQNCLWTLRNLSDAATKQEGMEGLLGTLVQLLGSDDINVVTCAAGILSNLTCNNYKNKMMVCQVGGIEALVRTVLRAGDREDITEPAICALRHLTSRHQEAEMAQNAVRLHYGLPVVVKLLHPPSHWPLIKATVGLIRNLALCPANHAPLREQGAIPRLVQLLVRAHQDTQRRTSMGGTQQQFVEGVRMEEIVEGCTGALHILARDVHNRIVIRGLNTIPLFVQLLYSPIENIQRVAAGVLCELAQDKEAAEAIEAEGATAPLTELLHSRNEGVATYAAAVLFRMSE",1.5 fold,,,
"endogenous β-catenin of Mel501 cells (natural protein, human (endogenous in Mel501), UniProt P35222 1-781, looked up, β-catenin, endogenous in the human melanoma cell line Mel501; also called CTNNB1; source: endogenous, Mel501 total cell lysate) MATQADLMELDMAMEPDRKAAVSHWQQQSYLDSGIHSGATTTAPSLSGKGNPEEEDVDTSQVLYEWEQGFSQSFTQEQVADIDGQYAMTRAQRVRAAMFPETLDEGMQIPSTQFDAAHPTNVQRLAEPSQMLKHAVVNLINYQDDAELATRAIPELTKLLNDEDQVVVNKAAVMVHQLSKKEASRHAIMRSPQMVSAIVRTMQNTNDVETARCTAGTLHNLSHHREGLLAIFKSGGIPALVKMLGSPVDSVLFYAITTLHNLLLHQEGAKMAVRLAGGLQKMVALLNKTNVKFLAITTDCLQILAYGNQESKLIILASGGPQALVNIMRTYTYEKLLWTTSRVLKVLSVCSSNKPAIVEAGGMQALGLHLTDPSQRLVQNCLWTLRNLSDAATKQEGMEGLLGTLVQLLGSDDINVVTCAAGILSNLTCNNYKNKMMVCQVGGIEALVRTVLRAGDREDITEPAICALRHLTSRHQEAEMAQNAVRLHYGLPVVVKLLHPPSHWPLIKATVGLIRNLALCPANHAPLREQGAIPRLVQLLVRAHQDTQRRTSMGGTQQQFVEGVRMEEIVEGCTGALHILARDVHNRIVIRGLNTIPLFVQLLYSPIENIQRVAAGVLCELAQDKEAAEAIEAEGATAPLTELLHSRNEGVATYAAAVLFRMSEDKPQDYKKRLSVELTSSLFRTEPMAWNETADLGLDIGAQGEPLGYRQDDPSYRSFHSGGYGQDALGMDPMMEHEMGGHHPGADYPVDGLPDLGHAQDLMDGLPPGDSNQLAWFDTDL",,> 70%,> 70%,> 70%
